Reference: the supplement of paper PMC10567573

B1: CHCHD6 (parent)
chain: MYKLSSEQFHEAASKMESTIKPRR

Variants of: B1
Experiment: protein stability index of a GFP-peptide fusion (GPS, HEK-293T) (PSI 1-6); higher = more stable
Details: c terminus: a fixed tail appended
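Further: lentivirally expressed fusions sorted by FACS into six bins by GFP to DsRed ratio, PSI derived from sequencing read proportions per bin multiplied by bin number.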

Protein stability index of substitutions, site by site:
E11: R 3.35 | Y 3.52 | N 3.4 | P 3.6 | F 2.65 | T 3.75 | D 3.65 | S 3.37 | I 3.34 | C 3.06 | G 3.8 | M 3.28 | A 2.99 | K 3.69 | H 3.22 | W 2.77 | Q 3.69 | L 3.26 | V 3.4
H10: M 3.37 | W 2.54 | L 3.69 | C 3.93 | F 3.44 | S 4.15 | Q 3.98 | R 3.82 | Y 3.52 | P 4.08 | N 3.41 | D 4.15 | A 3.66 | E 4.24 | G 4.28 | V 3.78 | I 3.08 | T 3.3 | K 4
S6: N 4.23 | T 4.18 | L 3.03 | Y 3.39 | Q 4.25 | V 3.1 | H 3.53 | G 4.26 | K 3.93 | R 3.39 | M 3.74 | W 2.62 | P 3.78 | I 2.64
S14: L 3.1 | T 3.81 | K 3.68 | C 3.29 | N 3.78 | I 2.86 | M 3.47 | V 4.11 | Q 4.24 | E 4.12 | A 3.56 | D 3.61 | Y 2.83 | W 3.18 | R 3.48 | G 3.87 | H 3.9 | P 3.82 | F 3.05
F9: E 4.43 | G 4.21 | P 4.68 | R 4.25 | V 3.36 | M 4.28 | D 4.82 | N 4.64 | H 4.32 | Q 4.12 | I 4.06 | S 4.81 | L 3.36 | Y 3.98 | T 4.2 | W 3.23 | A 4.03 | K 4.58 | C 3.83
A12: T 3.75 | P 4.23 | E 4.56 | S 3.97 | R 3.55 | L 2.92 | C 3.31 | N 2.9 | Q 4.04 | K 3.59 | H 4.12 | I 2.88 | F 3.27 | Y 3.39 | W 2.55 | D 4.17 | V 3.58 | M 3.14 | G 3.69
A13: D 4.25 | V 4.02 | M 2.59 | F 2.88 | Y 3.36 | G 3.83 | R 3.66 | K 3.86 | P 3.81 | L 3.09 | H 3.9 | N 4.24 | E 4.33 | S 3.81 | Q 3.61 | T 4.02 | I 2.93 | C 3.33 | W 2.95
K15: A 3.49
Q8: S 3.74 | H 3.22 | I 2.84 | C 2.96 | F 2.65 | D 3.73 | L 3.22 | Y 2.94 | R 3.86 | W 2.5 | N 3.86 | P 4.39 | K 3.84 | T 4.16 | G 3.35 | E 3.75 | V 3.49 | M 3.39 | A 4.25
E7: F 3.1 | R 2.96 | V 3.44 | Y 2.82 | H 3.44 | T 3.2 | G 4.39 | L 3.71 | M 2.97 | S 3.79 | A 3.6 | K 3.71 | P 3.64 | D 3.7 | N 3.58 | I 3.1 | Q 3.58 | C 3.29 | W 2.56
